In this assay the target is UDP-galactose-4-epimerase from Aspergillus nidulans (Aspergillus nidulans). Briefly: crystal structure; microbatch at 277 K, 20% (w/v) PEG3350, 0.1 M Bis-Tris propane pH 7.5, 0.2 M sodium fluoride, grown with 10 mM UDP-glucose; space group C2, three monomers per asymmetric unit (one homodimer and one monomer that forms a dimer through symmetry); 2.8 Å.

We go through one substance from paper PMC3792076, “Elucidation of Substrate Specificity in Aspergillus nidulans UDP-Galactose-4-Epimerase” (PLoS ONE, 2013).

The stoichiometry N is a count of units in the complex or per binding partner.

“UDP-galactose-4-epimerase from Aspergillus nidulans (enzyme)”: the stoichiometry N worked out at 2.
